Measured values as given in PMC10889842.

Biological target: StBIN2 (Brassinolide insensitive 2 of potato), fused to nLUC (Solanum tuberosum (potato))
Assay: split reporter (BiFC, NanoBiT); luciferase complementation in infiltrated tobacco leaves; LUC enzyme activity detected with a dual luciferase reporter assay kit (Vazyme); three biological repeats

| Substance | LUC enzyme activity, fold over the negative control [fold] |
| --- | --- |
| StCCJ9 (a homolog of peroxidase AtPER12), fused to cLUC (enzyme) | 5 |
| StSnRK2.2, fused to cLUC (natural protein) | > 5 |
